Data: the supplement of paper PMC10567573

B1: CHCHD6 (parent)
chain: MYKLSSEQFHEAASKMESTIKPRR
B2: ZNF263 (parent)
chain: EKPYKCPECGEIFAHSSNLLRHQR

Variants of: B1
Assay: protein stability index of a GFP-peptide fusion (GPS, HEK-293T) (PSI 1-6); higher = more stable
Conditions: c terminus: a fixed tail appended
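Also: lentivirally expressed fusions sorted by FACS into six bins by GFP to DsRed ratio, PSI derived from sequencing read proportions per bin multiplied by bin number.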

Variant | protein stability index
MYKLSSEQFHEAASKMESTIKPSR | 3.7
MYKLSSEQFHEAASKMESTIKPGR | 3.59
MYKLSSEQFHEAASKMESTIKPFR | 3
MYKLSSEQFHEAASKMESTIKPAR | 3.99
MYKLSSEQFHEAASKMESTIKPMR | 3.65
MYKLSSEQFHEAASKMESTIKPER | 4.14
MYKLSSEQFHEAASKMESTIKPNR | 3.4
MYKLSSEQFHEAASKMESTIKPIR | 3.05
MYKLSSEQFHEAASKMESTIKPKR | 4.11
MYKLSSEQFHEAASKMESTIKPTR | 3.31
MYKLSSEQFHEAASKMESTIKPCR | 3.48
MYKLSSEQFHEAASKMESTIKPDR | 4.44
MYKLSSEQFHEAASKMESTIKPPR | 3.78
MYKLSSEQFHEAASKMESTIKPLR | 2.91
MYKLSSEQFHEAASKMESTIKPHR | 3.96
MYKLSSEQFHEAASKMESTIKPWR | 2.54
MYKLSSEQFHEAASKMESTIKPVR | 3.16
MYKLSSEQFHEAASKMESTIKPYR | 3.44
MYKLSSEQFHEAASKMESTIKPQR | 3.12
MYKLSSEQFHEAASKMESTIKPRI | 2.86
MYKLSSEQFHEAASKMESTIKPRQ | 3.65
MYKLSSEQFHEAASKMESTIKPRM | 3.86

Variant | protein stability index
MYKLSSEQFHEAASKMESTIKPRG | 3.39
MYKLSSEQFHEAASKMESTIKPRW | 2.56
MYKLSSEQFHEAASKMESTIKPRC | 3.1
MYKLSSEQFHEAASKMESTIKPRP | 3.7
MYKLSSEQFHEAASKMESTIKPRY | 3.15
MYKLSSEQFHEAASKMESTIKPRT | 4.12
MYKLSSEQFHEAASKMESTIKPRE | 3.74
MYKLSSEQFHEAASKMESTIKPRS | 4.11
MYKLSSEQFHEAASKMESTIKPRV | 3.06
MYKLSSEQFHEAASKMESTIKPRF | 3.06
MYKLSSEQFHEAASKMESTIKPRK | 3.86
MYKLSSEQFHEAASKMESTIKPRH | 3.85
MYKLSSEQFHEAASKMESTIKPRD | 4.2
MYKLSSEQFHEAASKMESTIKPRA | 3.91
MYKLSSEQFHEAASKMESTIKPRL | 3.31
MYKLSSEQFHEAASKMESTIKPRN | 4.18
MYKLSSEQFHEAASKMESTIKTRR | 4.09
MYKLSSEQFHEAASKMESTIKLRR | 3.92
MYKLSSEQFHEAASKMESTIKERR | 3.93
MYKLSSEQFHEAASKMESTIKSRR | 4.03
MYKLSSEQFHEAASKMESTIKNRR | 3.46
MYKLSSEQFHEAASKMESTIKFRR | 3

Variant | protein stability index
MYKLSSEQFHEAASKMESTIKCRR | 4.05
MYKLSSEQFHEAASKMESTIKMRR | 3.86
MYKLSSEQFHEAASKMESTIKQRR | 3.86
MYKLSSEQFHEAASKMESTIKDRR | 4.26
MYKLSSEQFHEAASKMESTIKKRR | 3.8
MYKLSSEQFHEAASKMESTIKVRR | 3.6
MYKLSSEQFHEAASKMESTIKYRR | 3
MYKLSSEQFHEAASKMESTIKWRR | 2.58
MYKLSSEQFHEAASKMESTIKRRR | 3.83
MYKLSSEQFHEAASKMESTIKIRR | 3.53
MYKLSSEQFHEAASKMESTIKHRR | 3.91
MYKLSSEQFHEAASKMESTIKGRR | 3.56
MYKLSSEQFHEAASKMESTIKARR | 3.46
MYKLSSEQFHEAASKMESTIYPRR | 2.33
MYKLSSEQFHEAASKMESTIQPRR | 3.22
MYKLSSEQFHEAASKMESTITPRR | 3.31
MYKLSSEQFHEAASKMESTIVPRR | 3.61
MYKLSSEQFHEAASKMESTIRPRR | 3.9
MYKLSSEQFHEAASKMESTISPRR | 3.68
MYKLSSEQFHEAASKMESTIWPRR | 2.48

Variants of: B2
Assay: as above
Conditions: c terminus: a fixed tail appended

Variant | protein stability index
HKPYKCPECGEIFAHSSNLLRHQR | 2.75
TKPYKCPECGEIFAHSSNLLRHQR | 2.65
VKPYKCPECGEIFAHSSNLLRHQR | 2.45
DKPYKCPECGEIFAHSSNLLRHQR | 2.94
WKPYKCPECGEIFAHSSNLLRHQR | 1.76
IKPYKCPECGEIFAHSSNLLRHQR | 2.33
FKPYKCPECGEIFAHSSNLLRHQR | 2.13
SKPYKCPECGEIFAHSSNLLRHQR | 2.44
PKPYKCPECGEIFAHSSNLLRHQR | 2.2
NKPYKCPECGEIFAHSSNLLRHQR | 2.31
RKPYKCPECGEIFAHSSNLLRHQR | 2.9
MKPYKCPECGEIFAHSSNLLRHQR | 2.37
KKPYKCPECGEIFAHSSNLLRHQR | 1.83
YKPYKCPECGEIFAHSSNLLRHQR | 2.06
LKPYKCPECGEIFAHSSNLLRHQR | 2.53
QKPYKCPECGEIFAHSSNLLRHQR | 3.43
CKPYKCPECGEIFAHSSNLLRHQR | 1.85
AKPYKCPECGEIFAHSSNLLRHQR | 1.55
GKPYKCPECGEIFAHSSNLLRHQR | 1.99
ERPYKCPECGEIFAHSSNLLRHQR | 2.64
EDPYKCPECGEIFAHSSNLLRHQR | 3.24
EEPYKCPECGEIFAHSSNLLRHQR | 3.09
EQPYKCPECGEIFAHSSNLLRHQR | 2.89
EFPYKCPECGEIFAHSSNLLRHQR | 3.99
EMPYKCPECGEIFAHSSNLLRHQR | 2.59
EHPYKCPECGEIFAHSSNLLRHQR | 3.36
EIPYKCPECGEIFAHSSNLLRHQR | 1.68
EPPYKCPECGEIFAHSSNLLRHQR | 3.37
ECPYKCPECGEIFAHSSNLLRHQR | 3.25
ETPYKCPECGEIFAHSSNLLRHQR | 3.05
